B1: HDV Ribozyme (parent)
chain: GGCCGGCAUGGUCCCAGCCUCCUCGCUGGCGCCGGCUGGGCAACAUUCCGAGGGGACCGUCCCCUCGGUAAUGGCGAAUGGGACCCA

Variants of: B1
Experiment: self-cleavage, relative activity (ratio to wild type); higher = more cleavage; co-transcriptional
GGCCGGCAUGGUCCCAGCCUCCUCGCUGGCGCCGGCUGGGCAACAUUCCGAGGGGACCGUCCCCUCGGUACUGGCGAAUGGGACCCU [A71C A87U] gave a self-cleavage of 0.844.
Work on GGCCGGCAUGGUCCCAGCCUCCUCGCUGGCGCCGGCUGGGCAACAUUCCGAGGGGACGGUCCCCUCGGUAAUGGCCAAUGGGACCCA [C58G G76C] yielded a self-cleavage of 0.914.
With GGCCGGCAUGGUCCCAGCCUCCUCGCUGGCGCCGGCUGGGCUACAUUCCGAGGGGACCGUCCCCUCGGUAAUGGCGAAUGGGACCCG [A42U A87G] the self-cleavage was 0.389.
GGCCGGCAUGGUCCCAGCCUCCUCGCUGGCGCCGGCUGGGCAACAUUCCGAGGGGACAUUCCCCUCGGUAAUGGCGAAUGGGACCCA [C58A G59U] showed a self-cleavage of 0.89.
With GGCCGGCAUCGUCCCAGCCUCCUCGCUGGCGCCGGCAGGGCAACAUUCCGAGGGGACCGUCCCCUCGGUAAUGGCGAAUGGGACCCA [G10C U37A] the self-cleavage was 0.177.
GGCCGGCAUGGUCCCAGCCUCCUCGCAGGCUCCGGCUGGGCAACAUUCCGAGGGGACCGUCCCCUCGGUAAUGGCGAAUGGGACCCA [U27A G31U] showed a self-cleavage of 0.244.
In the case of GGCCGGCAUGGUCCCAGUGUCCUCGCUGGCGCCGGCUGGGCAACAUUCCGAGGGGACCGUCCCCUCGGUAAUGGCGAAUGGGACCCA [C18U C19G], the self-cleavage is reported as 0.0297.
GGCCGGCAUGGUCCCAGCCUCCUCGCUGGCGCCGGCUGGGCAACAUUCCCAGGGGACCGUCCCCUCGGUAAUGGCUAAUGGGACCCA [G50C G76U] gave a self-cleavage of 1.04.
Work on GGCUGGCAUGGUCCCAGCCUCCUCGCUGGCGCCGGCUGGGCAACAUUCCGAGGGGACCGUCCCUUCGGUAAUGGCGAAUGGGACCCA [C4U C64U] yielded a self-cleavage of 0.695.
In the case of GGCCGGCAUGGUCCCAGCCUCCUCGCUGGCGCCGGCUGGGCAACAUUCCGAGGGGACCGUCCCCUCGGUAAUGGCGAAUCGGAUCCA [G80C C84U], the self-cleavage is reported as 0.16.
In the case of GGCCGGCAUGGUACCAGCCUCCUCUCUGGCGCCGGCUGGGCAACAUUCCGAGGGGACCGUCCCCUCGGUAAUGGCGAAUGGGACCCA [C13A G25U], the self-cleavage is reported as 0.0791.
Work on GGCCGGCAUGGUCCCAGCCACCUCGCUGGCGCCGGCUGGUCAACAUUCCGAGGGGACCGUCCCCUCGGUAAUGGCGAAUGGGACCCA [U20A G40U] yielded a self-cleavage of 0.0627.
Work on CGCCGGCAUGGUCCCAGCCUCCUCGCUGGCGCCGACUGGGCAACAUUCCGAGGGGACCGUCCCCUCGGUAAUGGCGAAUGGGACCCA [G1C G35A] yielded a self-cleavage of 0.208.
GGCCGGCAUGGUCCCAGCCUCCUCGCUGGCGCAGGCUGGGCAACGUUCCGAGGGGACCGUCCCCUCGGUAAUGGCGAAUGGGACCCA [C33A A45G] gave a self-cleavage of 0.0536.
With GGCCGGCAUGGUCCCAGCCUCAUCGCUGGCGCCGGCUGGGUAACAUUCCGAGGGGACCGUCCCCUCGGUAAUGGCGAAUGGGACCCA [C22A C41U] the self-cleavage was 0.252.
For GGCCGGCAUGGUCCCAGCCUCCUCGCUGGCGCCGGCUGGGCAACAUUCCGAGGGGACCGUCCCCUCGGUAAUGGCGAAUGUGACCCU [G81U A87U], the self-cleavage was 0.455.
For GGCCGGCAUGGUCCCAACCUCCUCGCUGGCGCCGGCUGGGCAACAUUCCGAGGGGACCGGCCCCUCGGUAAUGGCGAAUGGGACCCA [G17A U60G], the self-cleavage was 0.712.
For GGCCGGCAUGGUCCCAGCCUCCUCGCUGGCGCCGGCUGGGCAACAUUCCGAGGGGACCGUCCGCUCGGUAAUGGCGAAGGGGACCCA [C63G U79G], the self-cleavage was 0.692.
Variant GGCCGGCAAGGUCCCAGCCUCCUCGCCGGCGCCGGCUGGGCAACAUUCCGAGGGGACCGUCCCCUCGGUAAUGGCGAAUGGGACCCA [U9A U27C] has a self-cleavage of 0.795.
Work on GGCCGGCAUGGUCCCAGCCUCCUCGCUGGCGUCGGCUGGGCAACAUUCCGAGGGGAUCGUCCCCUCGGUAAUGGCGAAUGGGACCCA [C32U C57U] yielded a self-cleavage of 0.843.
Work on GGCCGGCAUGGUCCCAGCCUCCUCGGUGGCGCCGGCUGGGCAACAUUCCGAGGGGACCGUCCCCUCGGUAAUGGCGAAUGGGACGCA [C26G C85G] yielded a self-cleavage of 0.965.
GGCCGGCAUGGUCCCAGCCUCCUCGCUGGCGCCGUCUGGGCAACAUUCCGAGGGGACCGUGCCCUCGGUAAUGGCGAAUGGGACCCA [G35U C61G] gave a self-cleavage of 0.286.
GGCCGGCAUGGUCCCAGCCUCCUCGCUGGCGCCGGCUGGGCAGCAUUCUGAGGGGACCGUCCCCUCGGUAAUGGCGAAUGGGACCCA [A43G C49U] gave a self-cleavage of 0.469.
GGCCGGCAUGGUCCCAGCCUCCUCGCUGGCGCCGGCUGGGCAACAUUCCGAGGGAACCGUCCCCUCGGUAAGGGCGAAUGGGACCCA [G55A U72G] gave a self-cleavage of 0.415.
Work on GGCCGGCCUGGUCCCAGCCUCCUCGCUGGCGCCGGCUGGGCAACAUUCCGAGGGGACCGUCCACUCGGUAAUGGCGAAUGGGACCCA [A8C C63A] yielded a self-cleavage of 0.852.
GGCCGGCAUGGUCCCAGCCUCCUCGCUGGUGCCGGCUGGGCAACAUUCCUAGGGGACCGUCCCCUCGGUAAUGGCGAAUGGGACCCA [C30U G50U] gave a self-cleavage of 0.645.
GGCAGGCAUGGUCCCAGCGUCCUCGCUGGCGCCGGCUGGGCAACAUUCCGAGGGGACCGUCCCCUCGGUAAUGGCGAAUGGGACCCA [C4A C19G] showed a self-cleavage of 0.0339.
Variant GGCCGGCAUGGUCCCAGCCUCCUCGCUGGCACCGGCUGGGCAACAUUCCGAGGGGACCGUCCCCUCGGUAAUGGCGAAGGGGACCCA [G31A U79G] has a self-cleavage of 0.266.
Work on GGCCGGCAUGGUCCCAGCCUCCUCGCUGGCGCCGCCUGGGCAACAUUCCGAGGGGACCGUCCCAUCGGUAAUGGCGAAUGGGACCCA [G35C C64A] yielded a self-cleavage of 0.113.
Variant GGCCGGCAUGGUCCCAGCCUCCUCGCUGGCGCCUGCUGGGCAACAUUCCGAGGGGACCGUCCCCUCGAUAAUGGCGAAUGGGACCCA [G34U G68A] has a self-cleavage of 0.274.
For GGCCGGCAUGGUCCCAGCCUCCUCGCUGGCGCCCGCUGGGCAACAUUCCGAGAGGACCGUCCCCUCGGUAAUGGCGAAUGGGACCCA [G34C G53A], the self-cleavage was 0.229.
Variant GGCCGGCAUGGUCCCAGCCACCCCGCUGGCGCCGGCUGGGCAACAUUCCGAGGGGACCGUCCCCUCGGUAAUGGCGAAUGGGACCCA [U20A U23C] has a self-cleavage of 0.

From the RNAGym collection of RNA variant scans (doi:10.7554/elife.80360)
